The record followed here is patent US20260139023A1.

The test deals with full-length integrin αVβ5 ectopically expressed on HEK293T cells (UniProt P06756). Kind of test: cell-based or functional assay.
full-length integrin αVβ5 ectopically expressed on HEK293T cells, sequence (P06756 31-1048 limits assumed, chain 1 of 2): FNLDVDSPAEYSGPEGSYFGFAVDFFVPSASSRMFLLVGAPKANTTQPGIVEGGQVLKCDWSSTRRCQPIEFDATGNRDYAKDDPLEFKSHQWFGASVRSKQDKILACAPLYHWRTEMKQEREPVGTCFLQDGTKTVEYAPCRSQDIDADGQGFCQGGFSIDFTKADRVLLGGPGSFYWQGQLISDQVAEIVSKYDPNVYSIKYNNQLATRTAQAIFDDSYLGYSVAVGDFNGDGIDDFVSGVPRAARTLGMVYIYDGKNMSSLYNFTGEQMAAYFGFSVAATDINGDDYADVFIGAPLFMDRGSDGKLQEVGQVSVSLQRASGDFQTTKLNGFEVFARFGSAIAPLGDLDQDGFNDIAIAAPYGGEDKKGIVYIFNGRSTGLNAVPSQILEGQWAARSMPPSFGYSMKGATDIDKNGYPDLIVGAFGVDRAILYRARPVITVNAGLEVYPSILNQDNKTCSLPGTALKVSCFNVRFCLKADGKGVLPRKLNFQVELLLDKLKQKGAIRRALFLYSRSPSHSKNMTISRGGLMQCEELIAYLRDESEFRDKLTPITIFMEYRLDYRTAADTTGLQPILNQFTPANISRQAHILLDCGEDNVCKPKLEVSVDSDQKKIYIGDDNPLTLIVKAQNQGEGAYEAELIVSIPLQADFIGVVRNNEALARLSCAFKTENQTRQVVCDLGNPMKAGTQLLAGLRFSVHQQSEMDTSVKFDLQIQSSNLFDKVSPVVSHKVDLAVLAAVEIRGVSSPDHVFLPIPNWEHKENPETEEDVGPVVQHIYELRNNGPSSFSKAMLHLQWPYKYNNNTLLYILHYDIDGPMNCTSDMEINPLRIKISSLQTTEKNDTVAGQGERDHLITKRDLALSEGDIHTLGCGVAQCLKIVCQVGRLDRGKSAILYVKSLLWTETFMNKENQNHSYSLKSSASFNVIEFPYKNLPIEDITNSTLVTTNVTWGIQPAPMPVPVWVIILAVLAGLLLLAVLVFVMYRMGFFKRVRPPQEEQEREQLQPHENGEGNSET
full-length integrin αVβ5 ectopically expressed on HEK293T cells, sequence (P18084 24-799 limits assumed, chain 2 of 2, further chain): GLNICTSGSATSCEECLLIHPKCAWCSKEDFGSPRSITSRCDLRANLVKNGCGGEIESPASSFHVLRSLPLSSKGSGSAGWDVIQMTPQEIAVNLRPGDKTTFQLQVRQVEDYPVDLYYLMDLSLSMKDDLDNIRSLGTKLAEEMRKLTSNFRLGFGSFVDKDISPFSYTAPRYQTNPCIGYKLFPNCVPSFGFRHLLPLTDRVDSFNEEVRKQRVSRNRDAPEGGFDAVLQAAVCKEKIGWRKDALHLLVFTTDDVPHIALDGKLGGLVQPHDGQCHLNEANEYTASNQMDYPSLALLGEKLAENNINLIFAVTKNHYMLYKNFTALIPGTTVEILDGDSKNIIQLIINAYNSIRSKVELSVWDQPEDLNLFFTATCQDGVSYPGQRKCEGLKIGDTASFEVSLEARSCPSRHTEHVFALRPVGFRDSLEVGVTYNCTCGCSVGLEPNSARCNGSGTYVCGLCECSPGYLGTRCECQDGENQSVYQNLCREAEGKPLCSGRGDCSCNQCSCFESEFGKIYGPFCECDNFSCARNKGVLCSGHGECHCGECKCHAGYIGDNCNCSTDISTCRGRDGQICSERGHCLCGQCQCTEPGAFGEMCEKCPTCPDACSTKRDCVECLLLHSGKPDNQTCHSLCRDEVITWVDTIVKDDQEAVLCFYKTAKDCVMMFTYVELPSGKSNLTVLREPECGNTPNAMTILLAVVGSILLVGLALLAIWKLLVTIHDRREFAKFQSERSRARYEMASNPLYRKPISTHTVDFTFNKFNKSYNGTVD

Consider “irisin N45Q mutant (irisin glycosylation mutant, recombinant, from mammalian Expi293 cells) (from UniProt Q8K3V5 60-171) (ligand)”, for which the concentration at maximal integrin signaling (pFAK western blot, HEK293T cells pretreated with Hsp90α) stood at 0.1 nM and the fold more potent integrin signaling than WT irisin is 5 to 10 fold.
